Measurements from PMC4471362.

Substrate: Nc1ncnc2c1ncn2[C@@H]1O[C@H](COP(=O)(O)OP(=O)(O)OP(=O)(O)O)[C@@H](O)[C@H]1O
Experiment: purified protein
Details: basal ATPase, 0.4 μM protein, 10 mM HEPES-KOH pH 7.5, 100 mM KCl, 2 mM MgCl2, 0.5 mM DTT, kcat unit as printed

B1: PfHsp70-z (Plasmodium falciparum 3D7) (protein)
chain: MSVLGIDIGNDNSVVATINKGAINVVRNDISERLTPTLVGFTEKERLIGDSALSKLKSNYKNTCRNIKNLIGKIGTDVKDDIEIHEAYGDLIPCEYNYLGYEVEYKNEKVVFSAVRVLSALLSHLIKMAEKYIGKECKEIVLSYPPTFTNCQKECLLAATKIINANVLRIISDNTAVALDYGMYRMKEFKEDNGSLLVFVNIGYANTCVCVARFFSNKCEILCDIADSNLGGRNLDNELIKYITNIFVNNYKMNPLYKNNTPELCPMGTGRLNKFLVTSTASDQQNGINNKVRIKLQEVAIKTKKVLSANNEASIHVECLYEDLDCQGSINRETFEELCSNFFLTKLKHLLDTALCISKVNIQDIHSIEVLGGSTRVPFIQNFLQQYFQKPLSKTLIADESIARGCVLSAAMVSKHYKVKEYECVEKVTHPINVEWHNINDASKSNVEKLYTRDSLKKKVKKIVIPEKGHIKLTAYYENTPDLPSNCIKELGSCIVKINEKNDKIVESHVMTTFSNYDTFTFLGAQTVTKSVIKSKDEKKKADDKTEDKGEKKDAKDQEQNDDKDQTNDNNMNEKDTNDKKEKNNETNSPNKTELKKGEEGKVQTCYTTIPIETLLAQGSYSSKDIFNFSEQEINMQHSDILEGERLKHLNELETIIYESRSRLNGIYKNFVMDDERDRILLSLDDYENWLYDNIEENKNMFIKKKEEIRDLIKNIVQKFDVYNSKQQNLGNIINHLNNIITQCSNKPSDESQNIINRTTKFLNNINSLQEQEKNKPLYEPPVYTLNDIEAEFNEVTQLAQKFFSKLEVEELAKQKAKQEKEKEKEKEKEKEKEKEKNEETNLDANEEQNNEAKNNEEKENSTKNENSANPEE
Km: 283 (+/-3) μM
Vmax: 0.0198 µmol/min/mg
